Experimental data taken from US9289444B2, “Composition for promoting hematogenesis containing quercetin 3-O-β-(2″-galloyl)-rhamnopyranoside as active ingredient” (Chungbuk National University Industry Academic Cooperation …, priority 2011, dated 2016).

Test system: BMNCs
Assay: Histochemistry (Wright-Giemsa) and immunocytochemistry for erythroid cells (TER-119)
Assay type: cell-based, mouse
Details: 7 days culture, Wright-Giemsa staining
Description: In order to investigate whether QGR can stimulate the differentiation of hematopoietic stem cells into erythroid cells, the morphology of cells was observed and immunocytochemistry against TER-119, the marker of erythroid progenitors, was carried out. BMNCs were harvested 7 days after incubation with either rEpo (3 units/ml) or QGR (100 or 200 μM/ml) washed with PBS, re-suspended at a concentration of 2×10^5 cells/ml in PBS and subjected (100 μl/slide) to cytospin for 5 min at 1,000 rpm (Cytospin3; Shandon, ThermoElectron, Waltham, Mass., USA). All slides were fixed using cold methanol. Wright-Giemsa stain was performed for morphologic analysis. Immunocytochemistry against TER-119 was carried out for cellular lineage with 100-fold dilution according to the manufacturer's instruction using avidin biotinylated enzyme complex kit (VECTASTAIN, Vector Laboratories and Burlingame, Calif., USA).

B1: positive control group: mouse recombinant Epo (rEpo, 3 units/ml), positive control in the erythroid differentiation tests (protein, UniProt P07321 27-192, looked up)
Erythropoietin: APPRLICDSRVLERYILEAKEAENVTMGCAEGPRLSENITVPDTKVNFYAWKRMEVEEQAIEVWQGLSLLSEAILQAQALLANSSQPPETLQLHIDKAISGLRSLTSLLRVLGAQKELMSPPDTTPPAPLRTLTVDTFCKLFRVYANFLRGKLKLYTGEVCRRGDR
  number of enucleated erythroid cells: increased
